Results on 17 molecules are retold here after US20080020978A1 (Amgen, published 2008).

Ends that are not written are not given here. A value given as a limit tells only on which side of the number the result lay.

What is called IC50 is the midpoint of a concentration-inhibition curve. Low readings indicate greater potency in that assay, high ones weaker potency in that assay. Usually Ki stands for the dissociation constant of the complex between target and ligand, obtained from inhibition or displacement. A low value points to tighter binding.

The chains are these.
B1: SEQ ID NO 20 (peptide)
peptide: CGGGGGGGVTHRLAGLLSRSGGVVKNNFVPTDVGPFAF-NH2
modifications: not fully specified (residue 1); printed as CGGGGGGGVTHRLAGLLSRSGGVVKNNFVPTDVGPFAF-NH2

T1 sequence (Q16602 23-461, chain 1 of 2): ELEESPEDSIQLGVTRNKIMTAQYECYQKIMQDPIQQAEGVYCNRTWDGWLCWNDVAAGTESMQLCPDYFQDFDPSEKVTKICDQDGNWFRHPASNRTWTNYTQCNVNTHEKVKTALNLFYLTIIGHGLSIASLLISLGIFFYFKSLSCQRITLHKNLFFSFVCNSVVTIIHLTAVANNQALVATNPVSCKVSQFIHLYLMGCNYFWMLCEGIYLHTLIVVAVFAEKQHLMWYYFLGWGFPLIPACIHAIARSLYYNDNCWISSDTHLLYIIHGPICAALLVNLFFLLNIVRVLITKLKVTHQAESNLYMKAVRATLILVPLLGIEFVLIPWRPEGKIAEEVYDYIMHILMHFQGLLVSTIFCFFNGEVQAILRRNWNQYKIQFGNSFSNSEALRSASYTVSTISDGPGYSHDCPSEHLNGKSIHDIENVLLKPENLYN
T1 sequence (O60894 27-148, chain 2 of 2): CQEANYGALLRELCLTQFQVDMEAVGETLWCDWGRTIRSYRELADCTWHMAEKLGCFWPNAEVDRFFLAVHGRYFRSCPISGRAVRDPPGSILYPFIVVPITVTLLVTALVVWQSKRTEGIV

One experiment has as its target T1, CGRP1 receptor (CRLR/RAMP1 complex) of human neuroblastoma SK-N-MC cells (human, UniProt Q16602 23-461; O60894 27-148). Kind of experiment: cell-based or functional assay.
For the molecule CGGGGGGGPTDVGPFAF-NH2 [SEQ ID NO 45], the half-maximal inhibitory concentration (IC50) is 56.6 nM.

Turning to WVTHRLAGLLSRSGGVVKNNFVPTNVGSKAF-NH2 [SEQ ID NO 4], half-maximal inhibition (IC50) required 0.64 nM.

As to WFVPTDVGPFAF-NH2 [SEQ ID NO 96], the 50% inhibitory concentration (IC50) was determined as 21.7 nM.

Take Ac-WVTHRLAGLLSRSGGVCRNNFVPTDVGPFAF-NH2 [SEQ ID NO 10]: 0.36 nM corresponded to half-maximal inhibition (IC50).

Take Ac-VTHRLAGLLSRSGGVVRKNFVPTDVGPFAF-NH2 [SEQ ID NO 6]: the concentration for half-maximal inhibition (IC50) was determined as 0.7 nM.

Consider Ac-WVTHRLAGLLSRSGGVKRNNFVPTDVGPFAF-NH2 [SEQ ID NO 11], for which the midpoint of inhibition, the IC50, lay at 0.51 nM.

For Ac-WVTHRLAGLLSRSGGVVRCNFVPTDVGPFAF-NH2 [SEQ ID NO 8], half-maximal inhibition (IC50) was put at 0.5 nM. This IC50 and that of the molecule before are within 1.5-fold of each other.

For Ac-WVTHRLAGLLSRSGGVVCNNFVPTDVGPFAF-NH2 [SEQ ID NO 9], the “IC50” value was found to be 2.15 nM.

On to CGGGGGGGVTHRLAGLLSRSGGVVKNNFVPTDVGPFAF-NH2 [SEQ ID NO 3], for which the half-inhibitory concentration (IC50) is 0.72 nM.

On to CGGGGGGGVTHRLAGLLSRSGGVVKNNFVPTNVGSKAF-NH2 [SEQ ID NO 2], for which half-maximal inhibition (IC50) required 21.1 nM.

On to Ac-WVTHRLAGLLSRSGGVVRKNFVPTDVGPFAF-NH2 [SEQ ID NO 7], for which the “IC50” value was 0.13 nM. Against the preceding molecule, the IC50 is about 160-fold lower.

A further experiment deals with T1, CGRP1 receptor (CRLR/RAMP1 complex) of …. Kind of experiment: 125I-hαCGRP competition, SK-N-MC membranes.
With Ac-VTHRLAGLLSRSGGVVRKNFVPTDVGPFAF-NH2 [SEQ ID NO 6], the inhibition constant (Ki) turned out to be 0.04 nM.

As for WVTHXLAGLLSXSGGVVRKNFVPTDVGPFAF (Ac-WVTH[Cit]LAGLLS[Cit]SGG VVRK^(20 kDa MeO-PEG)NFVPTDVGPFAF-amide) [SEQ ID NO 791], the Ki is 1.83 nM.

Take WVTHXLAGLLSXSGGVVXKNFVPTDVGPFAF (Ac-WVTH[Cit]LAGLLS[Cit]SGGVV[hArg]KNFVPTDVGPFAF-NH2) [SEQ ID NO 739]: the inhibition constant (Ki) was 0.53 nM.

With WVTHXLAGLLSXSGGVVXKNFVPTDVGPXAF (Ac-WVTH[Cit]LAGLLS[Cit]SGGVV[hArg]K(20 KPEGald)NFVPTDVGP[1-Nal]AF-NH2) [SEQ ID NO 173], the Ki was 0.84 nM. Compared with the last molecule, the Ki is about 1.6-fold higher.

Another experiment shares this target. Kind of experiment: cell-based or functional assay. This is another data set of the same source.
Turning to Ac-WVTHRLAGLLSRSGGVVRK(20 kDa MeO‑PEG)NFVPTDVGPFAF-NH2 [SEQ ID NO 809], half-maximal inhibition (IC50) required 0.32 nM.

On to WVTHXLAGLLSXSGGVVRKNFVPTDVGPFAF (Ac-WVTH[Cit]LAGLLS[Cit]SGG VVRK^(20 kDa MeO-PEG)NFVPTDVGPFAF-amide) [SEQ ID NO 791], for which half-maximal inhibition (IC50) required 3.74 nM.

The target of a further experiment is T2, rat ortholog of the CGRP1 receptor (rat, UniProt Q63118 24-464; Q9JJ74 27-148, limits assumed). Kind of experiment: cell-based or functional assay.
T2 sequence (Q63118 24-464 limits assumed, chain 1 of 2): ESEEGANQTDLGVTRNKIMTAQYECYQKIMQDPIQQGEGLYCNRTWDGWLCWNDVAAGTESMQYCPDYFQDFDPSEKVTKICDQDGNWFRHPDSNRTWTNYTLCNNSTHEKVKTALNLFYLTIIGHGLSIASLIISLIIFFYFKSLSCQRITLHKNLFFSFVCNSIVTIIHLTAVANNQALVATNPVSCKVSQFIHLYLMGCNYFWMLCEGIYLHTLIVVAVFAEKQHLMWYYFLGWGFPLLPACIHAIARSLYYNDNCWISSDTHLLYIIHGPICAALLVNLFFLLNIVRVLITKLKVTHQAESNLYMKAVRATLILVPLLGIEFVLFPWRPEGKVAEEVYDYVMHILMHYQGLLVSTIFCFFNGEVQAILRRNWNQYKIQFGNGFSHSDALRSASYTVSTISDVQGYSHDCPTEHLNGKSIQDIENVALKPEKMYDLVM
T2 sequence (Q9JJ74 27-148 limits assumed, chain 2 of 2): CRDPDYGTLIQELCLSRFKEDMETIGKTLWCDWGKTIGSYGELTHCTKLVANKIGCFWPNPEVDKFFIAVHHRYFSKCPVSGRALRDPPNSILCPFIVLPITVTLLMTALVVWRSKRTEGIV
Regarding Ac-WVTHRLAGLLSRSGGVVRKNFVPTDVGPFAF-NH2 [SEQ ID NO 808], the “in vitro IC50 (rat ortholog; nM)” value stood at 5.4 nM.

As to Ac-WVTHRLAGLLSRSGGVVRK(20 kDa MeO‑PEG)NFVPTDVGPFAF-NH2 [SEQ ID NO 809], the “in vitro IC50 (rat ortholog; nM)” value is 6.4 nM.

For WVTHXLAGLLSXSGGVVRKNFVPTDVGPFAF (Ac-WVTH[Cit]LAGLLS[Cit]SGG VVRK^(20 kDa MeO-PEG)NFVPTDVGPFAF-amide) [SEQ ID NO 791], the “in vitro IC50 (rat ortholog; nM)” value worked out at 131 nM.

In the case of WVTHXLAGLLSXSGGVVXKNFVPTDVGPFAF (Ac-WVTH[Cit]LAGLLS[Cit]SGGVV[hArg]KNFVPTDVGPFAF-NH2) [SEQ ID NO 739], the “in vitro IC50 (rat ortholog; nM)” value was found to be 8.9 nM.

WVTHXLAGLLSXSGGVVXKNFVPTDVGPXAF (Ac-WVTH[Cit]LAGLLS[Cit]SGGVV[hArg]K(20 KPEGald)NFVPTDVGP[1-Nal]AF-NH2) [SEQ ID NO 173]: the “in vitro IC50 (rat ortholog; nM)” value turned out to be 49.5 nM.

The target in a further experiment is T2, rat ortholog of the CGRP1 receptor. Kind of experiment: cell-based or functional assay. The source holds these as a separate data set.
Consider WVTHXLAGLLSXSGGVVRKNFVPTDVGPFAF (Ac-WVTH[Cit]LAGLLS[Cit]SGG VVRK^(20 kDa MeO-PEG)NFVPTDVGPFAF-amide) [SEQ ID NO 791], for which the “fold loss of potency against SEQ ID NO:31” value was about 9 fold.

For the next experiment, the target named is T1, CGRP1 receptor (CRLR/RAMP1 complex) of …. Kind of experiment: cell-based or functional assay. The source holds these as a separate data set.
For the molecule WVTHRLAGLLSRSGGVVKNNFVPTNVGSKAF-NH2 [SEQ ID NO 4], the “fold change in potency against SEQ ID NO:1” value is over 7 fold.

In the case of Ac-WVTHRLAGLLSRSGGVVRCNFVPTDVGPFAF-NH2 [SEQ ID NO 8], the “fold change in potency against SEQ ID NO:9” value was over 4 fold.

Turning to B1, the “fold loss of potency against SEQ ID NO:3” value is over 190 fold.

Consider CGGGGGGGVTHRLAGLLSRSGGVVKNNFVPTDVGPFAF-NH2 [SEQ ID NO 3], for which the “fold change in potency against SEQ ID NO:1” value is over 6 fold.

Another experiment has the same target. Kind of experiment: cell-based or functional assay. This is another data set of the same source.
Take Ac-WVTHRLAGLLSRSGGVCRNNFVPTDVGPFAF-NH2 [SEQ ID NO 10]: the “IC50” value was determined as 0.36 nM.

For the molecule Ac-WVTHRLAGLLSRSGGVKRNNFVPTDVGPFAF-NH2 [SEQ ID NO 11], the “IC50” value is 0.51 nM. This IC50 and that of the molecule before are within 1.5-fold of each other.

As for Ac-WVTHRLAGLLSRSGGVVRCNFVPTDVGPFAF-NH2 [SEQ ID NO 8], half-maximal inhibition (IC50) required 0.5 nM.

In the case of B1, the half-maximal inhibitory concentration (IC50) is 138 nM.

For the molecule Ac-WVTHRLAGLLSRSGGVVCNNFVPTDVGPFAF-NH2 [SEQ ID NO 9], the “IC50” value amounted to 2.15 nM.

For CGGGGGGGVTHRLAGLLSRSGGVVKNNFVPTDVGPFAF-NH2 [SEQ ID NO 3], the “IC50” value worked out at 0.72 nM.

Consider Ac-WVTHRLAGLLSRSGGVVRKNFVPTDVGPFAF-NH2 [SEQ ID NO 7], for which the “IC50” value was found to be 0.13 nM.
